Experimental data from patent US20130071375A1.
“And” between values parts separate entries of the source, which are not always exact repeats. Identical values can stand only once.

Tests used:
[1] = target: Endothelial protein C receptor (human) (UniProt Q9UNN8); assay: cell-based or functional assay
[2] = target: Protease-activated receptor 1 (human) (UniProt P25116); assay: cell-based or functional assay
Sequence of Protease-activated receptor 1 (human) (P25116 42-425): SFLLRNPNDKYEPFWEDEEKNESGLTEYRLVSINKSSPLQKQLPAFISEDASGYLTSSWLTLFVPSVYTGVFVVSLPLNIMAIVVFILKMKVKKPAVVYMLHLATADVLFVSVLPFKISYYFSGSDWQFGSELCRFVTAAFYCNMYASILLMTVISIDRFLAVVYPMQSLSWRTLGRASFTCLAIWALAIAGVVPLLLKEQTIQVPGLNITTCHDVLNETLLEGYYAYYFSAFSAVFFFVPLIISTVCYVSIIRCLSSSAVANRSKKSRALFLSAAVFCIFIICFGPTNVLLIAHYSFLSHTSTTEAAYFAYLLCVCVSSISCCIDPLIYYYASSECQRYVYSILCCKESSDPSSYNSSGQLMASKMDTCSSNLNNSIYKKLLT

Sequence of Endothelial protein C receptor (human) (Q9UNN8 18-238): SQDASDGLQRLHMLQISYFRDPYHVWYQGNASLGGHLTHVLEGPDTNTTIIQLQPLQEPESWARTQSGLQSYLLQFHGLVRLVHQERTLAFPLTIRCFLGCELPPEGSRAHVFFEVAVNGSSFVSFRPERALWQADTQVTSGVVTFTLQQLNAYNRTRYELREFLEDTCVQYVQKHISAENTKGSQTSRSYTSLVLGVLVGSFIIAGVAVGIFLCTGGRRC

inhibition of LPS (100 ng/mL)-mediated HMGB1 release by HUVECs (ELISA) [1] | efficacy relative to APC in inhibiting adherence and migration of THP-1 cells across HMGB1-activated HUVEC monolayer [2] | Substance
> 10 nM and 100 nM | – | Activated protein C (from UniProt P04070 43-461)
< 1 nM | 20 to 50 fold | PCgla/meizothrombin (meizothrombin with its Gla-domain replaced by that of protein C; Factor Xa-activated PCgla/prothrombin-3A)
